The nanobody polyreactivity screen of Harvey et al. (2022)

Test: yeast display, Sf9 membrane polyspecificity reagent, FACS + sequencing; frameworks hold sequencing errors
Method in brief: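 Synthetic nanobody libraries on Saccharomyces cerevisiae BJ5465 were galactose-induced for 36–48 hours, stained 1 hour at 4 °C with 10% biotinylated, detergent-solubilized Sf9 membrane reagent and enriched on streptavidin microbeads. FACS then separated cells into low and high (top ~1%) gates by anti-HA (expression) and streptavidin (reagent binding) fluorescence. Genes were colony-PCR amplified, MiSeq 2 × 250 sequenced and CDR-length filtered. A clone's polyreactivity label is that of its gate of origin.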

Sequence | polyreactivity (PSR sort gate)
QVQLVESGGGLVQAGGSLRLSCAASGSIFYYYAMGWYRQAPGKERELVAAITSGGRTKYADSVKGRFTISRDNAKNTVYLQMNSLKPEDTAVYYCATRAIWAYSTGYDYWGQGTQVTVSS | high polyreactivity
QVQLVESGGGLVQAGGSLRLSCAASGLTFSIYAMGWYRPAPGKERELVAGISQSGGSTYADSVKGRFTISRDNAKNTVYLQMNSLKPEDTAVYYCAKEFEWVGSPSTVDGLEYWGHGTQVTVSS | low polyreactivity
QVQIVESGGGLVQAGGRLRLSCAASGGIFKTYPMGWYRQAPGKERELVARINSRGGRTYYADSVKGRFTISRDYAKKTVYLQMNSLKPEATAVYYCAVRNPRYFNEYDYWGQGTQVTVSS | low polyreactivity
QVQLVESWGGLVQAGGSLRLICAASGRIFYPYAMGWYRQAPGKERELVASITSGGGSYYADSVKGRFTISRDNAKNTVYLQMNSLKPEDTAVYYCAAPYITPYGTYVFSSVYWGQGTQVTVSS | low polyreactivity
QDQLVESGGGLVQAGGSLRLSCAASGRTFPPYGMGWSRQAPGKERELVAAISKSSGSTNYADSVKGRFTISRDNAKNTVYLQMNSLKPEDTAVYYFNVDLYRWSKLAGAYRMDYWGQGTQVTVSS | low polyreactivity
QVQLVESGGGLVQAGGSLRLSCAASGRTGSYAMGWYRQAPGQERELVAAISRRGANTYYADSVKGRFTISRDNAKNTVYLQMNSLKPEVTAVYYCAVPHLYSRVEYDYWGQGSQVTVSS | high polyreactivity
QVQLLESGGGLVQAGGSLRLSCAASGRIFGRYAMGWYRHAPGKERELVAAISQSGARTYYADSVKGRFTFSRDNAKNTVYLQMNSLKPEDTAVYYCAARYKALYDYWGQGTQVTVSS | high polyreactivity
QVHIVESGAGLVQAGGSLRLSCAASGSIFRYNAMGWYRQAPGKEREFVAAITYSGGSTYYADSVTGRFTISRDNAKNTLFLQMNSLKPEDTAVYYCAAGYCSRGSRDGYWGQGTQVSVSS | low polyreactivity
QVQLVESGGGLVQAGGSLRLSCAASGGICRVYAMGWYRQAPGKERELVAAISRSGSSTYYADSVKGRFTISRDNAKNTVYLQMNSLKPEDTAVYYCNAYSQYWLGNNYWGQGTQVTVSS | high polyreactivity
QVQLVESGGGLVQAGGSLRLSCAASGFILEPNAMGWYRQAPGKERELVATISFSGGGTYYADSVKGRFTISRDNAKNNVYLQMNSLKPEDTAVYYCAAQGRDSDYVDFDYWGQGTQVTVSS | high polyreactivity
QVQLVESGGGLVQAGGSLRLSCAASGRTFFANAMGWYRQAPGKERELVAAITSNTGTTYYADSVKGRFTISRDNAKNTVYLQMNSLKPEDTAVYYCAARYTFRYEYWGQGTQVTVSS | high polyreactivity
QVQLVESGGGLVQAGGSLRLSCAASGRIFYYNTMGWYRQAPGKERELVARITYSGGRTYYADSVKGRFTISRDNAKNTVYLQMNSLKPEDTAVYYCNTAYRYFERQMYYWGQGTQVTVSS | high polyreactivity
QVQLVESGGGLVQAGGSLRLICAASGRIFYGYAMGWYRPAPGKEREFVAAITVSAGSTYYADSVKGRFTISRDNAKNTVYLQMNSLKPEDTAVYYCAAKRYVYPSYRFDYWGQGTQVTVSS | low polyreactivity
QVQLVESGGGLVQAGGSLRLSCAASGRTFLRYAMGWYRQAPGKERELVAAITYGGRTNYADSVKGRFTISRDNAKNTVYLQMNSLKPEDTAVYYCAADRTYYYGLRVDYWGQGTQVTVSS | high polyreactivity
QVQLVESGGGLVQAGGSLRLSCAASGSTFNFNVMGWYRQAPGKERELVAAISSSGGNTYYADSVKGRFTISRDNAKNTVYLQMNSLKPEDTAVYYCAAEYEEWYSVFLYDYWGQGTQVTVSS | high polyreactivity
QVQLVESGGGLVQAGGSLRLSCAASGNNFLLYAMVWYRQAPGKEREFVAAITWIAGSTYYADSVKGRFTISRDNAKNTVYLQMNSLKPEDTAVYYCAADSYWYDMDYWGQGTQVTVSS | high polyreactivity
QVQLVESGGGLVQAGGSLRISCAASGITASNAMGWNRQAPGKERELVAAISCRGGRTYYADSVKGRFTISRDNAKNTVYLQMNSLKPEDTAVYYCAKRYYTAQSRSDYWGQGTQVTVSS | high polyreactivity
QVQLVDSGGGLVQAGGSLRLSCAASGSIFYAYAMGWYRQATGKERQLLAVISRGGITNYSDSVKGRFTISRDNAKNTFFLQMNSLNPEDTAVYYCAAATSAWGYLRRYGYWGQGTQVTVSS | low polyreactivity
QVQLVESGGGLVQAGGSLRLSCAASGFTLVGYAMGWYRQAPGKERELVAAISSGGRTKYADSVKGRFTFSRDNAKNTVYLQMNSLKPEDTAVYYCKAVFTRGVTQYDHYYWGQGTQVTVSS | high polyreactivity
QVQLLESGGGLVQAGGSLRLSCAASGSIFRYNDMGWYRKAPGKETELVATITSGTNTYYADSVKGRFTISRDNAQNTVYLQMNRLKPEDTAVYYCAKSYNAWDGRTFEEMNYWGQGTQVTVSS | low polyreactivity
QVQLVESGGGLVQAGGSLRLSCAASGFTFARNGMGWYRQATVKEREFVAAITRSGGRTYYADSVKGRFTISRDNAKNTVYLQMNSLKPEDTAVYYCAAATSYGKSEYDYWGQGTQVTVSS | high polyreactivity
QVQLVESGGGLVQAGGSLRLSCAASGRIFFYNAMGWYRQAPGKERELVAAIDSGSSTYYADSVKGRFTISRDNAKNTVYLQMTSLKPEDTAVYYCAADGRRWYTEYDYWGQGTQVTVSS | low polyreactivity
